Test results taken from publication PMC10844826 (iScience, 2024).
Values belong to the molecule of their own block, whether it stands above or below them.

Tests used:
[1] = biological target: GST-tagged Arabidopsis thaliana Rpn10 vWA domain (Arabidopsis thaliana) (UniProt P55034); test: SPR
[2] = biological target: T1, GST-tagged Arabidopsis thaliana Rpn10 vWA domain (Arabidopsis thaliana, UniProt P55034 2-193); test: SPR
T1 sequence: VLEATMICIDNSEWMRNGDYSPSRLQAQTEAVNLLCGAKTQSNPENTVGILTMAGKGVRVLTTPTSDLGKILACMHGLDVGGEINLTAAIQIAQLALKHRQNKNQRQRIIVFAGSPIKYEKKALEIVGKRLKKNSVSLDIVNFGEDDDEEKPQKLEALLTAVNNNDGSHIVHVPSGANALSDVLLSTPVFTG

[3] = biological target: T2, AtRpn10 vWA domain, GST removed, as in the purified complexes (Arabidopsis thaliana, UniProt P55034 2-193); test: SEC-MALS
T2 sequence: T1 sequence

Molecule: onion yellows phytoplasma SAP05 (natural protein)
- Kd [1]: 398 nM

- Kd [2]: 400 nM
B1: Aster Yellows witches'-broom phytoplasma SAP05 (33-135) (natural protein, UniProt Q2NK94 33-135, looked up)
chain: APNEEFVGDMRIVNVNLSNIDILKKHETFKKYFDFTLTGPRYNGNIAEFAMIWKIKNPPLNLLGVFFDDGTRDDEDDKYILEELKQIGNGAKNMYIFWQYEQK

- stoichiometry N [3]: 1
B2: AYWB_SAP05 (33-135), tag removed, as in the purified complex (natural protein, UniProt Q2NK94 33-135, looked up)
chain: B1 chain
